Patent publication US20230137139A1, “BIOSYNTHESIS OF CANNABINOIDS AND C[…]” (priority 2020, published 2023)
Positions count from the first letter of the chain named.

B1: t808240 (protein)
chain: MGNTTSIGVVRDCLTSAVGGVAAHVAFQDTLLYQTSAVKPYNLNVPVTPAAVTYPQSANEVAAIVKCASDYDYKVQARSGGHSFGNFGLGGQNGAIVIDMKHFSQFSMDESTFIATIGPGTTLGNLDTELYNAGNRAMAHGICPSIRTGGHLTVGGLGPTSRQWGLALDHVEEVEVVLANSSVVRASDTQNQDVLFAIKGAAASFGIVTEFKVRTEEAPGLAVRYSYSFNLGTPAEKAKLAKDWQAYIAQENLTWKFSSNLIIFDGQIILEGIFFGSKEEYDKLNLEKKFPTSEPGTVLVITNWLGMIGHALEDTILRLIGDSPTWFYAKSLGFTPNTLIFDSTIDEFFDYIHKANAGTLAWSVMLSLEGGAINAVPKNATAYGHRDVLFWVQIFVVNPLGPISQTTYGFTDGLYNILARGVPESAGHAYLGCPDPKMPDAQRAYWRNNYPRLEELKRDLDPKDIFHNPQGVRVAS
B2: t808238 (protein)
chain: MWLSTMNGSASRRSDPVSRKIVCDGHASAHEVRTDNEAARDVPSRTAVNKERKQGSGPPGAMQRGFHAAHKPNEMVPQDGPLGRTAQLFRLAPACQSEPTRAPGQPSDLRLRQIPLATEQAARTLARMRPARFTFPYGRAAEDDCYLKKEDEGHDQSHPTSVLVGVPPFTRRCAAAETFKDTRARAPGTQPTDTTSTGASPSWTLSPLLSLSATDDSVPSKMGNGQSTPLQQCLNTVCNGRLGCVAFPSDALYQAAWVKPYNLDVPVTPIAVFKPSSTEDVAGAIKCAVASNVHVQAKSGGHSYANFGLGGQDGELMIDLANLQDFHMDKTSWQATFGAGYRLGDLDKKLQANGNRAIAHGTCPGVGIGGHATIGGLGPMSRMWGSALDHVLSVQVVTADGSIKNASESENSDLFWALRGAGASFGVITKFTVKTHPAPGSVVQYTYKISLGSQAQMAPVYAAWQALAGDPKLDRRFSTLFIAEPLGALITGTFYGTKAEYEATGIAARLPSGGTLDLKLLDWLGSLAHIAEVVGLTLGDIPTSFYGKSLALREEDMLDRTSIDGLFRYMGDADAGTLLWFVIFNSEGGAMADTPAGATAYPHRDKLIMYQSYVIGIPTLTKATRDFADGVHDRVRMGAPSANSTYAGYIDRTLSREAAQEFYWGAQLPRLREVKKAWDPKDVFHNPQSVDPAE
B3: t808247 (protein)
chain: MGNTTSIAAGRDCLVSAVGPAHVTFQDALLYQTTAVDPYNLNIPVTPAAVTYPQSAEEIAAVVKCASDYDYKVQARSGGHSFGNYGLGGQNGAIVVDMKHFSQFSMDESTFVATIGPGTTLGDLDTELYNAGGRAMAHGICPTIRTGGHLTVGGLGPTARQWGLALDHIEEVEVVLANSSIVRASNTQNQDILFAVKGAAASFGIVTEFKVRTQEAPGLAVQYSFTFNLGSPAQKAKLVKDWQAFIAQENLSWKFYSNLVIFDGQIILEGIFFGSKEEYDELDLEKRFPTSEPGTVLVLTDWLGMIGHALEDTILKLVGDTPTWFYAKSLGFTPDTLIPDSAIDDFFDYIHKTNAGTLAWFVTLSLEGGAINSVSEDATAYGHRDVLFWFQVFVVNPLGPISQTTYDFTNGLYDVLAQAVPESAGHAYLGCPDPKMPDAQRAYWRSNLPRLEDLKGDLDPKDTFHNPQGVQVGP
B4: t808253 (protein)
chain: B3 chain with D97E, A131T, P232A, A309G
B5: t808232 (protein)
chain: MGNTTSIAAGRDCLLSAVGGNHAHVAFQDQLLYQATAVEPYNLNIPVTPAAVTYPQSADEVAAVVKCAADYGYKVQARSGGHSFGNYGLGGEDGAIVVDMKHFDQFSMDESTYTATIGPGITLGDLDTALYNAGHRAMAHGICPTIRTGGHLTIGGLGPTARQWGLALDHVEEVEVVLANSSIVRASDTQNQEILFAVKGAAASFGIVTEFKVRTEEAPGLAVQYSFTFNLGTAAEKAKLVKDWQAFIAQEDLTWKFYSNMNIIDGQIILEGIYFGSKAEYDALGLEEKFPTSEPGTVLVLTDWLGMVGHGLEDVILRLVGNAPTWFYAKSLGFAPRALIPDSAIDDFFEYIHKNNPGTVSWFVTLSLEGGAINKVPEDATAYGHRDVLFWVQIFMINPLGPVSQTIYDFADGLYDVLAKAVPESAGHAYLGCPDPRMPNAQQAYWRNNLPRLEELKGDLDPKDIFHNPQGVMVVS
B6: t808237 (protein)
chain: MGNTTSIAGRDCLVSALGGNAGLVAFQDQLLYQTTAVHEYNLNIPVTPAAVTYPETAEQIAAVVKCASEYDYKVQARSGGHSFGNYGLGGADGAVVVDMKHFSQFSMDDQTYEAVIGPGTTLGDVDTELYNNGKRAMAHGICPTISTGGHFTMGGLGPTARQWGLALDHVEEVEVVLANSSIVRASNTQNQEVFFAVKGAAASFGIVTEFKVRTQPAPGLAVQYSYTFNIGSSAEKAQFVKDWQSFISAKNLTRQFYTNMVIFDGDIILEGLFFGSQEQYEALGLEDRFVPKNPGNILVLTDWLGMVGHALEDTILRLVGNTPTWFYAKSLGFTPDTLIPASGIDEFFDYIENHKAGTLTWFVTLSLEGGAINDVPEDATAYGHRDVLFWVQIFMASPTGPVSSTTYDFADGLYNVLTKAVPESEGHAYLGCPDPKMADAQQKYWRQNLPRLEELKATLDPKDTFHNPQGILPA

How the values were obtained:
[1] = system: CBCA, THCA, and CBDA production; CBGA residual substrate; test: In vivo TS activity assay, Example 3 metagenomic CBCAS screen, cultures fed olivetolic acid; format: cell-based, S. cerevisiae; details: for Mean CBCA / Mean CBDA / Mean THCA: metagenomic CBCAS candidates in S. cerevisiae, secondary screen, quadruplicate; for Mean CBCA / Mean CBDA / Mean THCA / % CBCA / % CBDA / % THCA: fed 1 mM olivetolic acid; for Average CBGA residual substrate: olivetolic acid fed (Table 12); for % CBCA / % CBDA / % THCA: share of terminal cannabinoid product profile
Experimental: (§1) An assay to detect TS activity was conducted as follows: each thawed glycerol stock of candidate CBCAS transformants was stamped into a well of YEP+4% dextrose media. Samples were incubated at 30° C. in a shaking incubator for 2 days. A portion of each of the resulting cultures was stamped into a well of YEP+4% galactose+1 mM olivetolic acid (FIG. 1 Structure 6a). Samples were incubated at 20° C. and shaken in a shaking incubator for 4 days. Every 24 hours during those 4 days, 2% galactose and 1 mM olivetolic acid were spiked into the cultures. Sodium citrate buffer adjusted to pH 5.5 was added to each well at a final concentration of 100 mM. Samples were incubated at 20° C. and shaken in a shaking incubator for 2 days. A portion of each of the resulting production cultures was stamped into a well of phosphate buffered saline (PBS). Optical measurements were taken on a plate reader, with absorbance measured at 600 nm and fluorescence at 528 nm with 485 nm excitation. Samples were incubated at 30° C. in a shaking incubator for 2 days. 100% methanol was stamped into the production cultures in half-height deepwell plates. Plates were heat sealed and frozen. Samples were then thawed for 30 min and spun down at 4° C. A portion of the supernatant was stamped into half-area 96 well plates. CBCA, THCA, and CBDA production in the samples was quantified via liquid chromatography-mass spectrometry (LC-MS).
(§2) To explore whether other putative CBCASs may exist in the broader metagenome, a library of 1072 candidate CBCAS genes was designed using the A. niger CBCAS enzyme identified in Example 1 as a reference. Protein sequences were recoded in silico for expression in S. cerevisiae and synthesized in the integrative yeast expression vector shown in FIG. 5. Each candidate enzyme expression construct was transformed into an S. cerevisiae CEN.PK strain that also expressed a prenyltransferase enzyme capable of catalyzing reaction R^4 in FIG. 2. Strain t616313, expressing GFP, was included in the library screen as a negative control for enzyme activity. Strain t807925, expressing the A. niger enzyme identified in Example 1, was included in the library screen as a positive control for enzyme activity. All candidate enzymes in the library, as well as the enzyme expressed by positive control strain t807925, included an N-terminal MFalpha2 signal peptide (SEQ ID NO: 16) (with a methionine residue added at the N-terminus of the MFalpha2 signal peptide) and a C-terminal HDEL signal peptide (SEQ ID NO: 17).
The library of candidate CBCAS enzymes was assayed for activity in a primary high-throughput screen using the assay described in Example 1. Production of CBCA, THCA, and/or CBDA in the samples was quantified via LC-MS.
(§3) Based on results of the primary screen, 70 strains were carried forward to a secondary screen to confirm activity observed in the primary screen. The experimental protocol for the secondary screen was identical to the primary screen, except that additional technical replicates were included per strain, and replicate production cultures for each strain were separately fed 1 mM olivetolic acid or 1 mM divaric acid. All strains were screened in quadruplicate (FIGS. 10A-10C, Tables 10 and 11).

[2] = system: CBCVA, THCVA, and CBDVA production; CBGVA residual substrate; test: In vivo TS activity assay, Example 3 metagenomic CBCAS screen, cultures fed divaric acid; format: cell-based, S. cerevisiae; details: for Average CBGVA residual substrate: divaric acid fed (Table 12); for Mean CBCVA / Mean CBDVA / Mean THCVA: secondary screen, S. cerevisiae, quadruplicate, LC-MS; for Mean CBCVA / Mean CBDVA / Mean THCVA / % CBCVA / % CBDVA / % THCVA: cultures fed 1 mM divaric acid; for % CBCVA / % CBDVA / % THCVA: share of terminal cannabinoid products
Experimental: as §1, §2, §3

Molecule	Mean CBCA [1]	Mean CBDA [1]	Mean THCA [1]	Average CBGA residual substrate [1]	% CBCA [1]	% CBDA [1]	% THCA [1]	Average CBGVA residual substrate [2]	Mean CBCVA [2]	Mean CBDVA [2]	Mean THCVA [2]	% CBCVA [2]	% CBDVA [2]	% THCVA [2]
B1	6248.43 µg/L	0.00 µg/L	115.70 µg/L	24393.82 µg/L	98.18%	0.00%	1.82%	4054.85 µg/L	4282.13 µg/L	0.00 µg/L	888.75 µg/L	82.81%	0.00%	17.19%
B2	2934.86 µg/L	0.00 µg/L	0.00 µg/L	63815.30 µg/L	100.00%	0.00%	0.00%	9247.47 µg/L	1841.90 µg/L	0.00 µg/L	282.10 µg/L	86.72%	0.00%	13.28%
B3	27052.63 µg/L	420.85 µg/L	1703.93 µg/L	0.00 µg/L	92.72%	1.44%	5.84%	0.00 µg/L	2651.55 µg/L	15.16 µg/L	1783.19 µg/L	59.59%	0.34%	40.07%
B4	15518.14 µg/L	63.99 µg/L	916.93 µg/L	0.00 µg/L	94.05%	0.39%	5.56%	0.00 µg/L	1476.99 µg/L	0.00 µg/L	715.85 µg/L	67.35%	0.00%	32.65%
B5	20281.01 µg/L	64.49 µg/L	1367.99 µg/L	0.00 µg/L	93.40%	0.30%	6.30%	0.00 µg/L	2379.23 µg/L	0.00 µg/L	1626.74 µg/L	59.39%	0.00%	40.61%
B6	12281.96 µg/L	37.34 µg/L	760.03 µg/L	69.20 µg/L	93.90%	0.29%	5.81%	0.00 µg/L	3599.07 µg/L	0.00 µg/L	1273.10 µg/L	73.87%	0.00%	26.13%
